Test results taken from the DeepSol protein solubility set.

Assay: soluble on expression in E. coli; label from the status in PepcDB or PDB records
With “MNEDNSQNSEGPSRKSFFERLSQLFQGEPKDRQELVDVIRDSEVNDLIDHDTRDMLEGVMEIAEMRVRDIMIPRSQMVTIDRTHNLDALVAIMTDAQHSRYPVISEDKDHVEGILLAKDLLKYLGSNCAPFNIQEVIRPAVVVPESKRVDRLLKEFREERYHMAIVVDEFGGVSGLVTIEDILEEIVGDIEDEFDDEEQKDIRQLSKHTFSVKALTTIEDFNHTFGTKFSDEEVDTVGGLVMTAFGHLPARGEVVDIAGYNFKVTAADSRRVVALQVTVPDLEALSHVAEE” the “soluble on expression in E. coli” value was “not soluble”. For “MNEILKCIGCGAPLQSENKDAPGYVPEHNMFREDVICRRCFRLKNYNEVQDVGMESEDFLNLLTGLSEKKGIIVNVVDVFDFEGSFINAIQRIVGNKKIILVANKIDLLPKQINHRRVKEWLRKSARKYGLEAEDVVLISANKGWGIDELLQSINHVRNKDDVYIVGTTNVGKSTLINKLIEQSVGEKDVVTTSRFPGTTLDMIDIPLDEKSFMFDTPGIIQSHQMTNYVSENELKIIIPKNEIKQRVYQLNEKQTLFFGGLARIDYVSGGKRPLVCFFSNDLNIHRTKTEKANDLWKSQLGALLSPPQDAQQFNLNDVKAVRLETGKTKRDIMISGLGFITIDAGAKVIVRVPKHVDVILRNSILLEHHHHHH”, the “soluble on expression in E. coli” value was “soluble”. In the case of “MNEIQKYIAANEPKIMEDLFSLIRIPSISALPEHHDDMLACAQRWAQLLLEAGVDEALVMPSKGNPIVFAQKIVDPNAKTVLVYAHYDVMPAEPLELWKSQPFEPEVRDGYIWARGADDDKGQSFIQVKAFEYLVKNELLKNNVKFIFEGEEEIGSPSLEAFCEEHKELLKADVILVSDTSMLGAELPSLTTGLRGLAYWEIEVTGPNRDLHSGHFGGAVANPINVLCEIISKVTDKDGRITVPGFYDDVEEVPQAEREMIAHIPFDEKKYKEAIGVKELFGEKGYSTLERNSCRPSFDVCGIWGGYTGEGSKTVLPSKAYAKVSCRLVAHQDHHKISQMFADYILQMAPDTVQVKVTPMHGGQGYVCPISLPAYQAAEKGFEIAFGKKPLAVRRGGSIPIISTFEQVLGTKTVLMGFGLESDAIHSPNENFSLDIFRKGIEAVIEFHQEYAKR”, the “soluble on expression in E. coli” value is reported as “not soluble”. With “MNELQAYHLSRNQFCPNLFFLAMNNVAQTDTPQQYDLRILRALRRITRSIALHSRQLAAVSHITAPQLMCLRAVIAGGPMTATAISREIHVSPSTVVGILDRLEDKGLIRRERGREDRRIVFVTATEGGRTLAAEAPSPLQKHLADGLNALPELEQATITLALERIVALMEQEGHAVEAAGEGSPPILEMPTGGAPPESGLVV” the “soluble on expression in E. coli” value was “not soluble”. For “MNEQRLSMRLERVATHVPAGARLADIGSDHGYLPVALLNRGAVSAAVAGEVALTPFYAAERTVRENDLDQQISVRLADGLAAIEPTDRITAISLCGMGGETIRDILESGKARLSGQERLILQPNGGEQPLRVWLMEHNYRILDEEVLRENRFDYEIIVAERTGPMIYTAEQLYFGPIQMQTRSPAFLLKWQRLLGKKHKALSNFARARKAVPEEKMQDLAQQIRWITALLN”, the “soluble on expression in E. coli” value was “not soluble”. In the case of “MNFGACPADIEDDEVVASFNVYASPALVNQAHIFQYPLRRRQRPYEATEIKLFSTSGTVAEESEALLAQGKGSSVLQPGSRLTMKCSLDTFGSPSFRPLPEFAPDMLGQMELQRHHTFNYTLQSQPFLPQSNYVLGYITLEGIHLTPVSTIQQFTPALSIPESSTGAVRVTEAFCSQSNSTAMPGFAAADRIQRELRRQRSRVLNGEADTAQEIQFFRDDSVESSAMRSRLCSSTLERITGNLNAASEPAEVENSLFPPEILQSGGISGGDEAHPSMIIHRFANCKSVAEQTNQLLQRCHILTLQRLQNIVVPYTSNEVVKTMSTVPEAQLVEALKSCAVWLHGVWVSRYCDQFRGSVAALREVILARFYQSEDGSVARADFNAWITTSAARRSIKEILATVAVLNTDEPDPSKRRWRLKYVPEDRAAREANLRDFKAKFAAEEASQHEAWRRRCAQVMAHIPYINAGRPVSQLCLRPRSTPPTTGTAASATLPYGSPNAAQSIAPSVSSMTSGHSGSGVTASASPFSSPAPGADLGFKDADIAPIRHYIRELFAEHGVINKQRVKDLVIKAQEARYPHATKAMLSTALQQCLDKFTDATWILKSAGEPIVDYYRPAILYVVLELRQFEMAALMKRLEEVVRARGLTSPPESAALRGRIGGASGTLEAVVQRVVAEVAEFKAGGRLWHIKGGNLMNE”, the “soluble on expression in E. coli” value is reported as “not soluble”. In the case of “MNFIYPAVIAAVQEGEKAWGTTHPNPPVGAVVLSSNGSIVGRGHTQPPGGSHAEIMALRQAGENTKGGTLVVTLEPCNHWGRTGPCSHAISESGIEHVVYLMQDTGSLEKGGAEYLRRQGLKVTFLGLSVAALIPWQASKDRGWPYVVGKTAHTLDGFVAAEDHSSKWITGSASRDYANRQRRHFDAIIVGTGTVKADNPALTARKDDGTLLPHQPLKVVIGTSKISEGTQLARSGFVQFSTIEEALVQLWDRGVRYVLVEGGPHLLHGFLTSGNLDQLHSYSAPMLLTRGVSLLQEEEKKSAESANTTIASALRGSPQSISMLGDDILQVINI”, the “soluble on expression in E. coli” value is reported as “not soluble”. For “MNGKARISIAIDGPAGAGKSTIAKIISKTLNILYLDTGAMYRAVALKAIRESVDTLNREQMSKLVENIDIKIAHSEDIQRIFLDGEDVTDFIRTPEVSIGASNVATVPAVRLKMVELQREIAKKNSVVMDGRDIGTYVLPDATLKFFLTASVEARAIRRYNELLSKGITQITLEDVKKDIEYRDKNDSNREFAPLSKAPDAIEIDTTDLTIEQVVNKIMEYAKDYVC”, the “soluble on expression in E. coli” value was “soluble”. For “MNGKPDLVITDSQVFKQVNAKLDRSVPLTSFSILMARYKGDLDKFYSGAKAIKNLKAGDKVLIAEACTHHQLKGDIAREKLPTWLEETCPGIIVHNCSGKDFPKNLNEYALVIHCGGCMFNKAEIMNRIGICDDALVPITNFGTSIAEINNILDRVMEPLKLEHHHHHH”, the “soluble on expression in E. coli” value was “not soluble”. With “MNGRSLIFSILFVFSELKCDDTDENDQHGTIYQFQAKNIDGKMVSMEKYRDKVVLFTNVASYCGYTDSNYNAFKELDGIYREKGFRVAAFPCNQFEKQEPETEGKILDFVKSSYTYAPDMYSKIEVNGQNTHPLWKFLKKERGSSLSADIPWNFSKFLVDKNGHVVGRYSHSVNPIDLEEEISRLLNS” the “soluble on expression in E. coli” value was “not soluble”. In the case of “MNGTKQQRRRGDTRQRIQDVALGLFAEQGYEKTSLREIAESLDVTKAALYYHFKTKEEILVSIFEDLSRPLEDLIEWGREQPHTLETKQEIIRRYSEALAGAAPLFRFMQENQATVRDLRIGELFKHRMFGLRDILMDPEADLVDQVRCISALFTLHAGMFVLRDLEGDPEEQRAAVLEVATDLITQAHRGAAGA”, the “soluble on expression in E. coli” value is reported as “not soluble”. In the case of “MNGTLDHPDQPDLDAIKMFVGQVPRTWSEKDLRELFEQYGAVYEINVLRDRSQNPPQSKGCCFVTFYTRKAALEAQNALHNMKVLPGMHHPIQMKPADSEKNNAVEDRKLFIGMISKKCTENDIRVMFSSFGQIEECRILRGPDGLSRGCAFVTFTTRAMAQTAIKAMHQAQTMEGCSSPMVVKFADTQKDKEQKRMAQQLQQQMQQISAASVWGNLAGLNTLGPQYLALLQQTASSGNLNTLSSLHPMGGLNAMQLQNLAALAAAASAAQNTPSGTNALTTSSSPLSVLTSSGSSPSSSSSNSVNPIASLGALQTLAGATAGLNVGSLAGMAALNGGLGSSGLSNGTGSTMEALTQAYSGIQQYAAAALPTLYNQNLLTQQSIGAAGSQKEGPEGANLFIYHLPQEFGDQDLLQMFMPFGNVVSAKVFIDKQTNLSKCFGFVSYDNPVSAQAAIQSMNGFQIGMKRLKVQLKRSKNDSKPY”, the “soluble on expression in E. coli” value is reported as “soluble”. For “MNHLKEVYIDIRDEIFDALDAASLVDVEPLELESQLKDSVNILIEKKQLQISSLKRLDLVKALLDELKGLGPLQALVDNDDISDIMINGPSDIFIEINGKVEKSPIQFVNEKQLNTIAKRIASNVGRRIDESKPLCDARLEDGSR”, the “soluble on expression in E. coli” value was “not soluble”. For “MNIEALERLRGWMRAKGFSRFYVVRPENFAWLVGGANTLGMGESVAYLEVGEEVVLHTSAIEHPRMVEEEAPGLPARVHPWYAFPPPPGPNDLEHDLTPLRLVLSREAQGAFTHLGREAAMAVGEVVRSARPEWTEYALAGALAEALWGRGLRPLLLLVAVDERLFRYRHPLPKGKPLGRAFMAVVCAERRGLVANLTRMASFGHGEVEARYRKVLEVEAAALSASRPGATLGEVFAALQGAYARVGFPRAWGEHHQGGVGGYRSREVVATPGHPLVLEAGMVLAWNPSLSGAKVEDTFLLTEGGLLNLTEDPFWPAVEVEGRRRPDLWRGGG”, the “soluble on expression in E. coli” value was “soluble”. For “MNIFNNVKKAEIHVHLEATITPSICKKFADRNNHEIPDDFFGSKYAYEWDDFYDFLKKYDIVTSVIHTPEDYYELTYEYLKECAANNVIYMEAMISSTHAKNKGMTYHSFIEGVYEASKKAEEDFGIVARYIMNGIRHLGPESVQNTAEEVLKNPHPCLVGFGLAGDELHFPPNLFVKTFDMLKEANFPITVHAGEWDGPENIRNAINLLHPTRLGHGVRSIEDPELVKEIIDKDIILETCPTSNIATKIYEDYESHPVKTLFNQGVKVTVNSDDPPFFMQLFQ”, the “soluble on expression in E. coli” value was “soluble”. In the case of “MNIIWQLGTCNIRQVLAEVPEPKPPYTTLASVFKNLERKHYIKPFREGKTYHYRICISREEYATRTMHRMVDNYFTGSYKHLVQFFAAGSDISVKDLREVIDMIEKGEESE”, the “soluble on expression in E. coli” value is reported as “not soluble”. With “MNIKLSFISIAFLSLSFNVAANEFEKSQEHYKSVTDLKNKIEILELEKKITELSGEIRNARMPKIDKSAPVLSPQPVVKSSEELQKSIEHIEEELKVELAYLVNNGQQKKYTFNLNGKLITLVNGDFVNGWKFIEDQNKIQFSKGNKVIDVN” the “soluble on expression in E. coli” value was “not soluble”. With “MNIKRITTEADLHEALKIRRGVFIEEQHVSEADEFDEFDTLQEQCQHILVYHENQPVGTGRARIVGHTAKLERICILKPYRKYGLGKIIVSGLEEIMKEKGLTSYKLHGQTQAAGFYQKLGYQISSQEFMEDGIPHVLMTKEISRNITLEHHHHHH” the “soluble on expression in E. coli” value was “not soluble”. For “MNIPKVQFNPKVHKNIGIEIIELSDIYKRSDDDLENFIAKPHRIKFHNILYITQGRGTHFIDFNTYTTQAGSVVFINKNQVHAFDLINQPQGKLIIFTDEYLDTILTTIKTPLSAHNYLLTSYSPTFSLSKKIRNTCDVLLTEIEKEYQVKDPNLNFLNLIFSAVLTKLSSERTRSFEQYLSESRTEKFMTFIELLEVNYTNTRDAKIYADMLHMTYKSLNQICKLATKQTTKQLIDAYIILEAKRKLSIENIRVQQLADELGFDEVTNFVKYFKKNTLLTPSQFKKLNQG”, the “soluble on expression in E. coli” value was “not soluble”. For “MNIQEKFKAIRKQRKLSLRDLANVAGSTSSISDFEKGKTNLSNDVLLQLLGFMVVEINEIFEWSAFQDAEFLELMTQVENALQTQDITVLIQKRETLQEFFVAKNHYIYHIISLVLDVIISKLQEKEPTPEIISELTDYFFSLDYWTNLDVGLLGNIVHHFTTETLVLFTDSILKNTPNQLRNNLDRIKIDTVINCLSVLLARREKNASQELLQLLSRKQFPTYFTYEKLCISEFKAIYMYIWCDKEEADNIHQTILKTVSLLFTKDEANKWDDYFKEIISSADIKK”, the “soluble on expression in E. coli” value was “not soluble”. In the case of “MNITKIISKTFDSRLKQIDLYASQASEIQHRVLSRLVNQAAQTEWGKKYDYASIRSYEDFRNRLPIQTYEEIKPYVERLRAGEQNLLWPSEIRWFAKSSGTTNDKSKFLPVSKEALEDIHYRGGKDAAALYFRINPDSHFFSGKGLILGGSHSPNLNSNHSLVGDLSAILIQNVNPLINFIRVPSKKIALMSEWETKIEAIANSTIPVNVTSLSGVPSWMLVLIKRILEKTGKQTLEEVWPNLEVFFHGGVAFTPYREQYKQVIHSKMMHYVETYNASEGYFGTQNDLSDPAMLLMIDYGIFYEFVPLEEVDKENPRAYCLEEVELNKNYAMVISTSCGLWRYMIGDTVKFTNKNPYKFVITGRTKHFINAFGEELIVDNAEKGLAKACAETGAQVCEYSAAPVFMDEHAKCRHQWLIEFAKMPDSVEKFAAILDATLKEVNSDYEAKRWKDIALQPLEVIVARPGLFHDWLARKGKLGGQHKVPRLSNTREYIESMLVLNNELEHHHHHH”, the “soluble on expression in E. coli” value is reported as “not soluble”.
